Results reported in US20260116965A1 (COHERENT BIOPHARMA SUZHOU, published 2026).

T1: Transient receptor potential cation channel subfamily V member 6 (TRPV6) protein (human, UniProt Q9H1D0 1-765)
T1 construct: Calcium channel; also called human TRPV6 protein
T1 sequence: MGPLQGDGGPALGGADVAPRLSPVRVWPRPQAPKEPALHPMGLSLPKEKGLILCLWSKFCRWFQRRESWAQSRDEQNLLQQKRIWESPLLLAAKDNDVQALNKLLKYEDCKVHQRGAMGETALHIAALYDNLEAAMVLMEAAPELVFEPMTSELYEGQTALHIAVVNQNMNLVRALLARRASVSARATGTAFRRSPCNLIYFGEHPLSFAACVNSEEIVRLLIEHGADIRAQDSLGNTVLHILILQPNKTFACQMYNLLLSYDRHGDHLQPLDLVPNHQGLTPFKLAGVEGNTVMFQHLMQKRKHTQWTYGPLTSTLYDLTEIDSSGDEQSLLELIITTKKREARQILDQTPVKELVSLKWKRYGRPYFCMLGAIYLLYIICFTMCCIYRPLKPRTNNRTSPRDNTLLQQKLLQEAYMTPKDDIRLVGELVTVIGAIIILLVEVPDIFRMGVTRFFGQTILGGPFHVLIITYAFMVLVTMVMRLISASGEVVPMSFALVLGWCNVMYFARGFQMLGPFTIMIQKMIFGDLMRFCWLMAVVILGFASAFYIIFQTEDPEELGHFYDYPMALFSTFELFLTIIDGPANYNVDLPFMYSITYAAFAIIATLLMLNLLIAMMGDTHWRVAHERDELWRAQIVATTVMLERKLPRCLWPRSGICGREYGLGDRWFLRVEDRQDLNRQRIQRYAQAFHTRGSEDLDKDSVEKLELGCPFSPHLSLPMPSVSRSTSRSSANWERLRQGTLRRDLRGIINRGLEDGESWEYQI


Target: T1, Transient receptor potential cation …
Assay: IHC on tissue slices

| binding result | Binder |
| --- | --- |
| binds | CB-Anti-0001 antibody (antibody, IgG1, V domains shown, also called antibody of hybridoma cell line 12CT 9.5.1; 12CT9.5.1) VH: QVQVQQPGAELVKPGTSVKLSCKASGYTFTSYWMHWVKQRPGQGLEWIGEIDPSDGYTNYNQKFRGKATLSVDKSSTTAYMQLSSLTSEDSAVYYCGWAGDFWGQGTTLTVSS VL: not shown |
| binds | CB-Anti-0002 antibody (antibody, IgG1, V domains shown, also called antibody of hybridoma cell line 16CT 4.1.1.2; 16CT4.1.1.2) VH: EVKLEESGGGLVQPGGSMKLSCVASGFTFSYYWMNWVRQSPEKGLEWVAEIRLKSHNYATHYAESVKGRFTISRDDSKSSVYLQMNNLRSEDTGIYYCARLAYDGERYYYALDYWGQGTSVTVSS VL: DIVMSQSPSSLAVSVGEKFTMSCKSSQSLLYSNNQKNYLAWYQQKPGQSPKLLIYWASTRESGVPDRFTGSGYGTDFTLTISSVKAEDLAVYYCQQYYSYPFTFGSGTKLEIK |
